According to article PMC5041495:

Legend:
[1] = target: VEGF165 (human, UniProt P15692-4 27-191); assay: BLI
[2] = target: MAPK1 (UniProt P28482 1-360); assay: BLI
[3] = target: T1, alpha-thrombin (human, UniProt P00734;P00734 328-363;364-622); assay: BLI
[4] = target: T2, VEGF164 (mouse, UniProt Q00731-2 27-190); assay: BLI
T2 sequence: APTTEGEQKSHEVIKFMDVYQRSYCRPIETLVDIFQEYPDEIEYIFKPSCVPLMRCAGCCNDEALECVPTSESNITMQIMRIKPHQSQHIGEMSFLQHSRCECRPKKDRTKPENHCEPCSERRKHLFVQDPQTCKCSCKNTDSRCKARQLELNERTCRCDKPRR

[5] = target: T1, alpha-thrombin; assay: SPRi
[6] = target: T1, alpha-thrombin; assay: BLI; remark: listed apart in the source
[7] = target: T1, alpha-thrombin; assay: BLI; remark: listed apart in the source

MAPK1, sequence (P28482 whole entry): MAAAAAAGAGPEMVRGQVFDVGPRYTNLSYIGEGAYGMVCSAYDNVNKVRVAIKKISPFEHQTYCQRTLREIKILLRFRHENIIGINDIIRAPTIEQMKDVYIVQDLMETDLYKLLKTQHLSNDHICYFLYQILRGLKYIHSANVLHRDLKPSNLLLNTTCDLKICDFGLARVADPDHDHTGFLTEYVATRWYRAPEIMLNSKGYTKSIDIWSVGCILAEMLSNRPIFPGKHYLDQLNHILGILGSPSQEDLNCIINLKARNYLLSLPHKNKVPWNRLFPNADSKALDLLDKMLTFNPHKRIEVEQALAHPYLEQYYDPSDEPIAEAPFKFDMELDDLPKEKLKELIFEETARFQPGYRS

Binder	binding result [1]	binding result [2]	Kd [3] [pM]	binding result [4]	Kd [5] [pM]	Kd [6] [pM]	Kd [7] [pM]
GGGAACAAAGCUGAAGUACUUACCC (structured_RNA, 2'-F pyrimidines (from crystal construct; ST-2 not in material)) [AF113-1]	no binding	no binding	1870 ± 36	no binding	–	–	–
GGGAACAAAGCUGAAGUACUUACCC (structured_RNA, 2'-F pyrimidines; PS2 at 3'-phosphate of U17) [AF113-18]	no binding	no binding	–	no binding	4.5 ± 0.2	1 ± 0.1	1.8 ± 0.2
